Values quoted from earlier work as cited in PMC8592953.
Where two headings read alike, the source gives them in different places.

Key:
[1] = target: RAGE (soluble) soluble (Homo sapiens) (UniProt Q15109)
[2] = target: RAGE (soluble) soluble (Homo sapiens) (UniProt Q15109); remark: listed apart in the source

UniProt Q15109, sequence (Q15109 23-342): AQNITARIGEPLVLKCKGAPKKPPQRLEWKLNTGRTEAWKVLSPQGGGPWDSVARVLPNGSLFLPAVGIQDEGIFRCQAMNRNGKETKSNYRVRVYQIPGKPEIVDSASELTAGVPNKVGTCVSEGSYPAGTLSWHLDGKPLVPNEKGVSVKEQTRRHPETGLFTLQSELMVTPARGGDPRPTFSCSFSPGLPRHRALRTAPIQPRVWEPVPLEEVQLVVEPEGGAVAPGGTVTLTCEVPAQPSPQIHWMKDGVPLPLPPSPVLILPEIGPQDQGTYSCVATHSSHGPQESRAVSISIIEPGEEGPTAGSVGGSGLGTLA

| Substance | Kd [1] | Kd [2] |
| --- | --- | --- |
| glyoxylic acid-glycated bovine serum albumin (from UniProt P02769) | 100 nM |  |
| AGE-modified bovine serum albumin (BSA-AGE) (from UniProt P02769) |  | 1000 nM |
